This note sets out measurements from doi:10.1101/2022.06.12.495819 (bioRxiv, 2022).

For data set [1], the target named is Tomato SlDXS1, truncated version lacking the N-terminal plastid targeting peptide, 6xHis-tagged (Solanum lycopersicum (tomato)). Kind of data set: dynamic light scattering.
The target is the same in data set [2]. Kind of data set: cross-linking.
The data set “cross-linking” deals with the molecule itself. Kind of data set: cross-linking.
Data set [3] concerns the molecule itself. The data set can be described thus: SDS-PAGE with non-denaturing loading buffer and immunoblot.

As for “Tomato SlDXS1, truncated version lacking the N-terminal plastid targeting peptide, 6xHis-tagged (enzyme)”, the stoichiometry N in data set [1] and in data set [2] was 2 throughout.

B1: Escherichia coli deoxyxylulose 5-phosphate synthase (EcDXS), 6xHis-tagged, full length (enzyme)
chain: MSFDIAKYPTLALVDSTQELRLLPKESLPKLCDELRRYLLDSVSRSSGHFASGLGTVELTVALHYVYNTPFDQLIWDVGHQAYPHKILTGRRDKIGTIRQKGGLHPFPWRGESEYDVLSVGHSSTSISAGIGIAVAAEKEGKNRRTVCVIGDGAITAGMAFEAMNHAGDIRPDMLVILNDNEMSISENVGALNNHLAQLLSGKLYSSLREGGKKVFSGVPPIKELLKRTEEHIKGMVVPGTLFEELGFNYIGPVDGHDVLGLITTLKNMRDLKGPQFLHIMTKKGRGYEPAEKDPITFHAVPKFDPSSGCLPKSSGGLPSYSKIFGDWLCETAAKDNKLMAITPAMREGSGMVEFSRKFPDRYFDVAIAEQHAVTFAAGLAIGGYKPIVAIYSTFLQRAYDQVLHDVAIQKLPVLFAIDRAGIVGADGQTHQGAFDLSYLRCIPEMVIMTPSDENECRQMLYTGYHYNDGPSAVRYPRGNAVGVELTPLEKLPIGKGIVKRRGEKLAILNFGTLMPEAAKVAESLNATLVDMRFVKPLDEALILEMAASHEALVTVEENAIMGGAGSGVNEVLMAHRKPVPVLNIGLPDFFIPQGTQEEMRAELGLDAAGMEAKIKAWLA
As for B1, the “stoichiometry N” value in “cross-linking” amounted to 2.

B2: Tomato SlDXS1, full-length protein with C-terminal myc tag (pGWB420-SlDXS1), expressed in N. benthamiana leaves (enzyme)
chain: SLSESGEYYTQRPPTPILDTVNYPIHMKNLSLKELKQLADELRSDTIFNVSKTGGHLGSSLGVVELTVALHYVFNAPQDRILWDVGHQSYPHKILTGRRDKMSTLRQTDGLAGFTKRSESEYDCFGTGHSSTTISAGLGMAVGRDLKGRNNNVIAVIGDGAMTAGQAYEAMNNAGYLDSDMIVILNDNRQVSLPTATLDGPVAPVGALSSALSRLQSNRPLRELREVAKGVTKQIGGPMHELAAKVDEYARGMISGSGSTLFEELGLYYIGPVDGHNIDDLIAILKEVRSTKTTGPVLIHVVTEKGRGYPYAERAADKYHGVAKFDPATGKQFKASAKTQSYTTYFAEALIAEAEADKDIVAIHAAMGGGTGMNLFHRRFPTRCFDVGIAEQHAVTFAAGLACEGIKPFCAIYSSFMQRAYDQVVHDVDLQKLPVRFAMDRAGLVGADGPTHCGAFDVTYMACLPNMVVMAPSDEAELFHMVATAAAIDDRPSCFRYPRGNGIGVELPAGNKGIPLEVGKGRILIEGERVALLGYGSAVQNCLDAAIVLESRGLQVTVADARFCKPLDHALIRSLAKSHEVLITVEEGSIGGFGSHVVQFMALDGLLDGKLKWRPIVLPDRYIDHGSPVDQLAEAGLTPSHIAATVFNILGQTREALEVMT
With B2, the “stoichiometry N” value in data set [3] came out at 2.

For orientation: stoichiometry N means a count of units in the complex or per binding partner.
